Experimental findings from patent publication US20240109965A1 are described below.

Positions count from the first letter of the chain named.

In test [1] the target is cynomolgus T cell receptor (TCRαβ) on primary cynomolgus T cells (cynomolgus). Description: cell-based or functional assay.
Test [2] addresses human T cell receptor (TCRαβ) on primary human T cells (human). The test is described as follows: cell-based or functional assay.

Chain of human T cell receptor (TCRαβ) on primary human T cells (human) (P0DTU3 134-275, chain 1 of 2): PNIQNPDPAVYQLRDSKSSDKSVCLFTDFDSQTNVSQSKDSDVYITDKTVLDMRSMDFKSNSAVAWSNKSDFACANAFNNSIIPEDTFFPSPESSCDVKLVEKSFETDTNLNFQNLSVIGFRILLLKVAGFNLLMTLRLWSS
Chain of human T cell receptor (TCRαβ) on primary human T cells (human) (P01850 other isoform, or with tags, fused parts or gaps, chain 2 of 2, further chain): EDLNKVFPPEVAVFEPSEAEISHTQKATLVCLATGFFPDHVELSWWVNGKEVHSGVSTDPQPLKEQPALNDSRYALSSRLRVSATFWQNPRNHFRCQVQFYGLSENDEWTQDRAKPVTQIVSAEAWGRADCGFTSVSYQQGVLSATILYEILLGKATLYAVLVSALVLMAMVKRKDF

B1: A022600427 (protein)
chain: DVQLVESGGGVVQPGGSLRLSCVASGYVHKINFYGWYRQAPGKEREKVAHISIGDQTDYADSAKGRFTISRDESKNTVYLQMNSLRPEDTAAYYCRALSRIWPYDYWGQGTLVTVSSGGGGSEVQLVESGGGVVQPGGSLRLSCAASGFTFSSFAMTWVRRPPGKGLEWVATITNAGVTSYADSVKGRFTISRDNAKNTLYLQMNSLRPEDTALYICANARRTGPRAPTDIGSYRGQGTLVTVSSGGGGSGGGSEVQLVESGGGVVQPGGSLRLSCAASGSIFRSVFSSSTMEWYRQAPGKKRELVARIAPGEGTYYGALYADSVKGRFTISRDNAKNTVYLQMNSLRPEDTALYYCASGVAWGQGTLVTVSSGGGGSGGGSEVQLVESGGGVVQPGGSLRLSCAASGFTFRSFGMSWVRQAPGKGPEWVSSISGSGSDTLYADSVKGRFTISRDNSKNTLYLQMNSLRPEDTALYYCTIGGSLSRSSQGTLVTVSSA
In test [1], B1 registered an IC50 (M), cynomolgus T cell mediated HuH-7 cell killing, Cynomolgus Donor #1 of 2.3e-08 M and an IC50 (M), cynomolgus T cell mediated HuH-7 cell killing, Cynomolgus Donor #2 of 2.5e-10 M. In test [2], this molecule yielded an IC50 (M), human T cell mediated HuH-7 cell killing, Human Donor #1 of 3e-10 M and an IC50 (M), human T cell mediated HuH-7 cell killing, Human Donor #2 of 1.1e-10 M.

B2: A022600462 (protein)
chain: B1 chain with D61E, W102Y, A176K
In test [1], B2 had an IC50 (M), cynomolgus T cell mediated HuH-7 cell killing, Cynomolgus Donor #1 of 3.9e-09 M and an IC50 (M), cynomolgus T cell mediated HuH-7 cell killing, Cynomolgus Donor #2 of 2.2e-10 M. In addition, in test [2], the IC50 (M), human T cell mediated HuH-7 cell killing, Human Donor #1 was 2.8e-10 M and the IC50 (M), human T cell mediated HuH-7 cell killing, Human Donor #2 amounted to 1e-10 M.
